According to patent US20030138403A1:

Biological target: interferon gamma receptors on HeLa cells (UniProt P15260)
Experiment: cell-based or functional assay

UniProt P15260, sequence (P15260 18-489 limits assumed): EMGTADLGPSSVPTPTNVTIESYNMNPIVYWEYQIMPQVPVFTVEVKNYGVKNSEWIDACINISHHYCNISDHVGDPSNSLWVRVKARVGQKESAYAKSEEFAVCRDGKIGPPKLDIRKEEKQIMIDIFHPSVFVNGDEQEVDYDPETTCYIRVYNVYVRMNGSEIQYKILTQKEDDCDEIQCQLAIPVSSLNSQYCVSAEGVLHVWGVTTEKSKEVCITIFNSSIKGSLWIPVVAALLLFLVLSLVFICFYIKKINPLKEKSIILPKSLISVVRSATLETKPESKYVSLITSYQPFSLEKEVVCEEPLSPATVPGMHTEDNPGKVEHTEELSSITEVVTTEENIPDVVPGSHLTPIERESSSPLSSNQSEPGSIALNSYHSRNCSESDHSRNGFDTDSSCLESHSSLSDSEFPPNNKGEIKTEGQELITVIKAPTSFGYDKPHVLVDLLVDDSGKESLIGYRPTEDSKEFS

An interferon gamma activity, Primary Assay (ISRE-luciferase reporter in HeLa cells), culture medium 24 h after transfection of 1.3e+07 AU/ml was found for “interferon gamma E38N+S40T+S99T variant (full-length, expressed from pIGY-54 in CHO K1 cells) (from UniProt P01579 24-161) (ligand)” in this work.

An interferon gamma activity, Primary Assay (ISRE-luciferase reporter in HeLa cells), culture medium 24 h after transfection of 5.1e+06 AU/ml was found for “interferon gamma S99T variant (full-length, expressed from pIGY-48 in CHO K1 cells) (from UniProt P01579 24-161) (ligand)” in this work.

A specific activity as percent of the corresponding non-PEGylated interferon gamma variant, Primary Assay of 15% and a specific activity, Primary Assay (ISRE-luciferase reporter in HeLa cells) of 1.3e+06 AU/mg were found for “interferon gamma variant N16C+S99T (full-length) PEGylated with mPEG-OPSS (10 kDa) (from UniProt P01579 24-161) (ligand)” in this work.

A specific activity as percent of the corresponding non-PEGylated interferon gamma variant, Primary Assay of 15% and a specific activity, Primary Assay (ISRE-luciferase reporter in HeLa cells) of 2.4e+06 AU/mg were found for “interferon gamma variant N59C+S99T (full-length) PEGylated with mPEG-MAL (5 kDa) (from UniProt P01579 24-161) (ligand)” in this work.
